Assay results published in the supplement of paper PMC9170038.

Tests used:
MS2 coat protein [1] = test: apparent KD of MS2 coat protein, switch ON state; designed switch direction (-1 OFF switch, 1 ON switch): 1; higher = weaker reporter binding; conditions: FMN input: 0 or 200 uM; Eterna round: R93 (includes R88 designs)
How it was run: (§1)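 Apparent KD is reported per design as the median of normalised binding-curve fits across its clusters. The RNA switches were made by on-chip transcription from Illumina sequencing clusters. SNAP-549-labelled MS2 coat protein was then added in twofold steps (0.7 or 1.5 nM to 3 µM; 0.8–1.5 h to 10–20 min per step) in 100 mM Tris-HCl pH 7.5, 80 mM KCl, 4 mM MgCl2, without or with constant ligand.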

MS2 coat protein [2] = test: apparent KD of MS2 coat protein, switch OFF state (with FMN for OFF switches, without FMN for ON switches); designed switch direction (-1 OFF switch, 1 ON switch): 1; higher = weaker reporter binding; conditions: FMN input: 0 or 200 uM; Eterna round: R93 (includes R88 designs)
How it was run: as §1

Sequence	apparent KD of MS2 coat protein (MS2 coat protein [1]) [nM]	apparent KD of MS2 coat protein (MS2 coat protein [2]) [nM]
GAAAAACAUGAGGAUCACCCAUGUAGAGAUAUGGGAGGAUAUACGAAGACGAAAGUCGAGGUAGAAGGCCUAAAAG [Garnet 56]	27.7	108
GAAAAACAUGAGGAUCACCCAUGUGAGAACAUGGGAGGAUAUACGAGGACGAAAGUCAAAGUAGAAGGCCUAAGAG [Garnet 86]	164	30
GAAAAACAUGAGGAUCACCCAUGUGGAAAUAUGGGAGGAUAUACAAAGACGAAAGUCAAAGUAGAAGGCCUAAAAG [Mat - Same State 1 - Eli mod - D4]	18.2	111
GAAAAACAUGAGGAUCACCCAUGUGGAAAUAUGGGAGGAUAUACAAAGACGUAAGUCAAAGUAGAAGGCCUAAAAG [Garnet 94]	30.8	177
GAAAUAAAAACACAGGAUAUCCAAAAGAAAACAUGAGGAUCACCCAUGUAAAGAAAAUAAAAAUGGGAGAAGGGUGAAAAUAAAG [Mat - Same State 2 - JL mod - D25]	26.4	93.8
GAAAUAAAAACACAGGAUAUCCAAAAGAAAACAUGAGGAUCACCCAUGUAAAGAAAAUAAAAAUGGGAGAAGGGUGAAAUAAAAA [Mat - Same State 2 - JL mod - D27]	30.4	33.8
GAACCACAUGAGGAUCACCCAUGUCUAAGAAUGGGAGGAUAUGCACAAAAGGAAAUAACUGCAGAAGGCCUACGAA [62%, Redo, 2]	23.2	129
GAAGACAUAGUUCAGGAUAUAGGAAUAGUCACAUGAGGAUCACCCAUGUGCAUUUAUAUGCGCGCUUAGAAGGGAGGUAGUUAUA [SameState2 Malc#21]	24.2	23.9
GAAGACAUAGUUCAGGAUAUGGGAAUAGUCACAUGAGGAUCACCCAUGUGCAUUUAUAUGCGCGCUCAGAAGGGAGGUAGAUAAU [Mat - Same state - Malcolm Mod - D118]	26.9	27
GAGAAACAUGAGGAUCACCCAUGUAGAAAUAUGGGAGGAUAUACAAAGACGAGAGUCAAAGUAGAAGGCCUAGAAG [77%, Mat - Mod of Eli - With 3 more G's]	18.8	53.6
GAUAGACAUGAGGAUCACCCAUGUAGAAUUAUGGGAGGAUAUACAAAGACGAGAGUCAGAGUAGAAGGCCUAGGAG [salish99-ss1-158]	28.1	69.2
GCGAAUAUGGGUUAGGAUAUGCGCGCAUGUACAUGAGGAUCACCCAUGUUUACGGGCGCCUUUGAGCAGAAGGAGCUAAUCAACGC [SameState2Try2_Neo]	21.5	24.2
GGAAAGAAAAGCGAGGAUAUGCUAGGUAAUACAUGAGGAUCACCCAUGUUUUUUUUUAACAAAUUGCAGAAGGCGCAAGAAAGAAA [Ungainly]	16.5	18.2
GGAAAUAAAAGAGAGGAUAUCCAAAAGGAAACAUGAGGAUCACCCAUGUAAAAGAAAGGAAAAUGGGAGAAGGCUCAAAAUAAAG [salish99-ss2-004]	44.2	56.1
GGAAAUAACAGAGAGGAUAUCCAAAGGAAAACAUGAGGAUCACCCAUGUAAAAGGAAGGAAAUUGGGAGAAGGCUCAAAAUAAUC [salish99-ss2-017]	23.9	24.3
GGAACACAUGAGGAUCACCCAUGUCAAGGAGGUCGAGGAUAUAGGAAAAAAAAAAAAAAAUUAGAAGGUGAGGAGG [V1]	169	139
GGAAGACAUGAGGAUCACCCAUGUGGGAAUAUGGGAGGAUAUACAAAGACGAGAGUCAGAGUAGAAGGCCUAGGAA [salish99-ss1-99]	37.8	176
GGAGCCGGCACUGAGGAUAUUCAUAUUAAAACAUGAGGAUCACCCAUGUAGGCCAGAAGGCCUUGGGAGAAGGCAGGUCGACUCG [Diqureveri]	20.8	288
GGAGUACAUGAGGAUCACCCAUGUUGGAACGAAGUAGGAUAUGUACAAUAUUAAAUAAAAACAGAAGGACUAAUAA [Meow]	30.4	55.1
GGAUACAUACAGAAGGAUAUGAGAACAAAGACAUGAGGAUCACCCAUGUACAAAAGGUGGAACAAUCAGAAGGUCUAAACAACAAA [Club and Ball]	57.6	52.1
GGGAGACAUGAGGAUCACCCAUGUGAGAAGAGGCGAGGAUAUCGAAAGAAAGAAGAGAAACGAGAAGGCGCGAGGG [salish99-SS1-059]	57.4	75
GGGAGACAUGAGGAUCACCCAUGUGAGAAGAGGCGAGGAUAUCGAAAGAAAGAAGAGAAACGAGAAGGCGCGAGUU [salish99-SS1-054]	35	54.7
GUAGAACAUGAGGAUCACCCAUGUGAAGACGCAUGAGGAUAUAUCCGUACAUAGCAUACGAUAGAAGGCAUGAUAA [JR_SS001_Sub1704]	29.6	90.6
GUCCAACAUGAGGAUCACCCAUGUAAGCGUGAUCAAGGAUAUGGGCGAAAGAAAACGCAACCAGAAGGUGAGCGCC [Aanmati]	160	135
UAAAAACAUGAGGAUCACCCAUGUGAGAACAUGGGAGGAUAUACAAGGACGAAAGUCAAAGUAGAAGGCCUAAAAU [Mat - Same State 1 - Mod - D176]	99.8	29.3
UAUCAUUACACGAAGGAUAUCGAUAAUUGAACAUGAGGAUCACCCAUGUGACAUAUCUUACAGUUCGAGAAGGUCGAGGGUGAAG [JR_SS002_Sub706]	28.9	52
UGAAAACAUGAGGAUCACCCAUGUCUAGGAAAUCAAGGAUAUGGGCCGGCAAUAGGCGGGCCAGAAGGUGAGAAAU [Arisati]	88.7	144
UGAUUGAGAUUGUAGGAUAUUGGAAAAGCCACAUGAGGAUCACCCAUGUCAAAAAAAAAAAAAAACAAGAAGGGCGGUUUUAGUUA [Same State 2]	58.4	64.5
UUAAGCCGCGGGCAGGAUAUGUAUUAAAAUACAUGAGGAUCACCCAUGUGCAGGUGUAACACCUGACAGAAGGGCCAAUCGCAGC [Ceanreerqu]	26.4	228
